Starred links: 1 amine or outer side, 2 acyl side, 3 side chain; linkers in the order of their positions; H or OH if unused. Non-standard residues stand in square brackets, D forms with d. Groups on a side chain read outwards from the residue. Primed or numbered codes have the meaning given here. No end group written: not given here. *: point of attachment. γGlu = O=C(O)[C@H](CCC(=O)[*:2])N[*:1]; Stearoyl = CCCCCCCCCCCCCCCCCC(=O)*; αMeF = C[C@](N)(Cc1ccccc1)C(=O)O; αMeK = C[C@](N)(CCCCN)C(=O)O; αMeS = C[C@](N)(CO)C(=O)O; PEG2′ = not defined here; Aib = CC(C)(N)C(=O)O
T1: glucose-dependent insulinotropic peptide (gastric inhibitory polypeptide) receptor (human, UniProt P48546 22-466)
T1 sequence (looked up): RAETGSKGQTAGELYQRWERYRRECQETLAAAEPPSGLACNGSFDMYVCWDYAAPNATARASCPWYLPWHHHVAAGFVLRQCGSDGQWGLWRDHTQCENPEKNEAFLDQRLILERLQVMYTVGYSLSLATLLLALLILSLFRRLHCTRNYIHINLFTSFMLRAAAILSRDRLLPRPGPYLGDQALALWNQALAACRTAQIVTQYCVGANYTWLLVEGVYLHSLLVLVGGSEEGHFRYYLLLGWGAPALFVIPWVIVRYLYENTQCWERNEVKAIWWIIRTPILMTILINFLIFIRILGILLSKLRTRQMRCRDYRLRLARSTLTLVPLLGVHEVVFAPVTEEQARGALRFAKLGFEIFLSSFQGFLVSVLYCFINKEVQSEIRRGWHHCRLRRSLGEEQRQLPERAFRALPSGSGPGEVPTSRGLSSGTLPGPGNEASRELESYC


Tests used:
Test in all cases: cell-based or functional assay
GLP-1 receptor = GLP-1 receptor (human, UniProt P43220 24-463)
glucagon receptor = glucagon receptor (human, UniProt P47871 26-477)
Chain of glucagon receptor (P47871 26-477): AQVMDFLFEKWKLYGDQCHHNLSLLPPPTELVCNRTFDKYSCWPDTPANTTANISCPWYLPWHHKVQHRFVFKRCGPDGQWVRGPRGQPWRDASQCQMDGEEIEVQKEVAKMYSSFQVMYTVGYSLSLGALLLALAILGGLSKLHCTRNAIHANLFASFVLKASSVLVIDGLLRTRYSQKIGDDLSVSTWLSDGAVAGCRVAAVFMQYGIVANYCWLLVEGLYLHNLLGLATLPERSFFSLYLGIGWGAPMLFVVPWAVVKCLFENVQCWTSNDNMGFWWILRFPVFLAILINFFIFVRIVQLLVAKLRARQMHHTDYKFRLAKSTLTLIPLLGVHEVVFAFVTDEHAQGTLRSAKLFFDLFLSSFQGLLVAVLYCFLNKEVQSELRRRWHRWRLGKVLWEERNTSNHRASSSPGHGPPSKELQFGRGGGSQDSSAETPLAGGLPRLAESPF

[1] = target: T1, glucose-dependent insulinotropic …

| Binder | Primary assay EC50 (cAMP), Mean pM GLP-1R (GLP-1 receptor) [pM] | Primary assay EC50 (cAMP), n1 (GLP-1 receptor) [nM] | Primary assay EC50 (cAMP), n2 (GLP-1 receptor) [nM] | Primary assay EC50 (cAMP), n1 (glucagon receptor) [nM] | Primary assay EC50 (cAMP), n2 (glucagon receptor) [nM] | Primary assay EC50 (cAMP), n1 [1] [nM] | Primary assay EC50 (cAMP), n2 [1] [nM] |
| --- | --- | --- | --- | --- | --- | --- | --- |
| H[Aib]EGS[αMeF]SSDVSS[αMeF]LEGEAA[αMeK]E[αMeF]IA[αMeF]VV[αMeK]GG-NH2 (N-terminus assumed; SMILES CC[C@H](C)[C@H](NC(=O)[C@](C)(Cc1ccccc1)NC(=O)[C@H](CCC(=O)O)NC(=O)[C@](C)(CCCCN)NC(=O)[C@H](C)NC(=O)[C@H](C)NC(=O)[C@H](CCC(=O)O)NC(=O)CNC(=O)[C@H](CCC(=O)O)NC(=O)[C@H](CC(C)C)NC(=O)[C@](C)(Cc1ccccc1)NC(=O)[C@H](CO)NC(=O)[C@H](CO)NC(=O)[C@@H](NC(=O)[C@H](CC(=O)O)NC(=O)[C@H](CO)NC(=O)[C@H](CO)NC(=O)[C@](C)(Cc1ccccc1)NC(=O)[C@H](CO)NC(=O)CNC(=O)[C@H](CCC(=O)O)NC(=O)C(C)(C)NC(=O)[C@@H](N)Cc1c[nH]cn1)C(C)C)C(=O)N[C@@H](C)C(=O)N[C@@](C)(Cc1ccccc1)C(=O)N[C@H](C(=O)N[C@H](C(=O)N[C@@](C)(CCCCN)C(=O)NCC(=O)NCC(N)=O)C(C)C)C(C)C) [SEQ ID NO 8] | 88 | 0.071 | 0.11 | 7.8 | 12 | 23 | 23 |
| H[Aib]EGS[αMeF]TSDVSK([PEG2′-PEG2′-γGlu-Stearoyl])YLEGEAA[Aib]E[αMeF]IA[αMeF]VVEGG-NH2 [SEQ ID NO 59] | 211 | 0.243 | 0.179 | 25.6 | 25.6 | 25.6 | 25.6 |
| H[Aib]EGS[αMeF]TSDVSK([PEG2′-PEG2′-γGlu-Stearoyl])YLEGEAA[αMeK]E[αMeF]IA[αMeF]VVEGG-NH2 [SEQ ID NO 60] | 49 | 0.049 | 0.05 | 25 | 25 | 25 | 25 |
| H[Aib]EGS[αMeF]SSEVSS[αMeF]LEGEAA[αMeK]E[αMeF]IA[αMeF]VV[αMeK]GG-NH2 (N-terminus assumed; SMILES CC[C@H](C)[C@H](NC(=O)[C@](C)(Cc1ccccc1)NC(=O)[C@H](CCC(=O)O)NC(=O)[C@](C)(CCCCN)NC(=O)[C@H](C)NC(=O)[C@H](C)NC(=O)[C@H](CCC(=O)O)NC(=O)CNC(=O)[C@H](CCC(=O)O)NC(=O)[C@H](CC(C)C)NC(=O)[C@](C)(Cc1ccccc1)NC(=O)[C@H](CO)NC(=O)[C@H](CO)NC(=O)[C@@H](NC(=O)[C@H](CCC(=O)O)NC(=O)[C@H](CO)NC(=O)[C@H](CO)NC(=O)[C@](C)(Cc1ccccc1)NC(=O)[C@H](CO)NC(=O)CNC(=O)[C@H](CCC(=O)O)NC(=O)C(C)(C)NC(=O)[C@@H](N)Cc1c[nH]cn1)C(C)C)C(=O)N[C@@H](C)C(=O)N[C@@](C)(Cc1ccccc1)C(=O)N[C@H](C(=O)N[C@H](C(=O)N[C@@](C)(CCCCN)C(=O)NCC(=O)NCC(N)=O)C(C)C)C(C)C) [SEQ ID NO 9] | 1200 | 1.2 | 1.2 | 29 | 29 | 29 | 29 |
| H[Aib]EGS[αMeF]TSDVSK([PEG2′-PEG2′-γGlu-Stearoyl])YLEGEAAKE[αMeF]IA[αMeF]VVEGG-NH2 [SEQ ID NO 57] | 153 | 0.14 | 0.17 | 25 | 25 | 25 | 25 |
| H[Aib]EGS[αMeF]TSDVSK([PEG2′-PEG2′-γGlu-Stearoyl])YLEGEAAEE[αMeF]IA[αMeF]VVEGG-NH2 [SEQ ID NO 58] | 4720 | 5.2 | 4.3 | 25 | 25 | 25 | 25 |
| H[Aib]EGS[αMeF]TSDV[αMeS]S[αMeF]LEGEAAK([PEG2′-PEG2′-PEG2′-Stearoyl])E[αMeF]IA[αMeF]VVKGG-NH2 [SEQ ID NO 56] | 3.2 | 0.0029 | 0.0035 | 26 | 26 | 26 | 26 |

Second part, the binder after the results:

| Primary assay EC50 (cAMP), Mean pM GLP-1R (GLP-1 receptor) [pM] | Primary assay EC50 (cAMP), n1 (GLP-1 receptor) [nM] | Primary assay EC50 (cAMP), n2 (GLP-1 receptor) [nM] | Primary assay EC50 (cAMP), n1 (glucagon receptor) [nM] | Primary assay EC50 (cAMP), n2 (glucagon receptor) [nM] | Primary assay EC50 (cAMP), n1 [1] [nM] | Primary assay EC50 (cAMP), n2 [1] [nM] | Binder |
| --- | --- | --- | --- | --- | --- | --- | --- |
| 18.8 | 0.0221 | 0.0155 | 25 | 25 | 25 | 25 | H[Aib]EGS[αMeF]TSDV[αMeS]S[αMeF]LEGEAA[αMeK]EFIK([PEG2′-PEG2′-γGlu-Stearoyl])WVVEGG-NH2 [SEQ ID NO 68] |
| 1.9 | 0.002 | 0.0018 | 25 | 25 | 25 | 25 | H[Aib]EGS[αMeF]TSDVSK([PEG2′-PEG2′-PEG2′-Stearoyl])YLEGEAAEE[αMeF]IA[αMeF]VVEGG-NH2 [SEQ ID NO 62] |
| 16.9 | 0.0197 | 0.014 | 25.1 | 25.1 | 25.1 | 25.1 | H[Aib]EGS[αMeF]TSDV[αMeS]S[αMeF]LEGEAAKEFIK([PEG2′-PEG2′-γGlu-Stearoyl])WVVEGG-NH2 [SEQ ID NO 65] |
| 2.9 | 0.00321 | 0.00255 | 25.7 | 25.7 | 25.7 | 25.7 | H[Aib]EGS[αMeF]TSDVSK([PEG2′-PEG2′-PEG2′-Stearoyl])YLEGEAA[Aib]E[αMeF]IA[αMeF]VVEGG-NH2 [SEQ ID NO 63] |
| 60.1 | 0.0721 | 0.048 | 25.4 | 25.4 | 25.4 | 25.4 | H[Aib]EGS[αMeF]TSDV[αMeS]S[αMeF]LEGEAA[Aib]EFIK([PEG2′-PEG2′-γGlu-Stearoyl])WVVEGG-NH2 [SEQ ID NO 67] |
| 0.9 | 0.00085 | 0.00091 | 25 | 25 | 25 | 25 | H[Aib]EGS[αMeF]TSDVSK([PEG2′-PEG2′-PEG2′-Stearoyl])YLEGEAAKE[αMeF]IA[αMeF]VVEGG-NH2 [SEQ ID NO 61] |
| 53 | 0.0661 | 0.0399 | 25.5 | 25.5 | 25.5 | 25.5 | H[Aib]EGS[αMeF]TSDV[αMeS]S[αMeF]LEGEAAAEFIK([PEG2′-PEG2′-γGlu-Stearoyl])WVVEGG-NH2 [SEQ ID NO 69] |
| 150 | 0.203 | 0.0979 | 25.1 | 25.1 | 25.1 | 25.1 | H[Aib]EGS[αMeF]TSDV[αMeS]S[αMeF]LEGEAAEEFIK([PEG2′-PEG2′-γGlu-Stearoyl])WVVEGG-NH2 [SEQ ID NO 66] |
| 1.3 | 0.0014 | 0.0012 | 25 | 25 | 25 | 25 | H[Aib]EGS[αMeF]TSDVSK([PEG2′-PEG2′-PEG2′-Stearoyl])YLEGEAA[αMeK]E[αMeF]IA[αMeF]VVEGG-NH2 [SEQ ID NO 64] |
